PMC8996150, “The structure of Synechococcus elongatus enolase reveals key aspects of phosphoenolpyruvate binding” (Acta Crystallographica. Section F, Structural Biology …, 2022)

Substrate: O=C(O)[C@@H](CO)OP(=O)(O)O
Assay: purified protein
Type: biochemical, Synechococcus elongatus
Details: 100 mM HEPES pH 8.0, 100 mM KCl, 1.0 mM MgCl2, 30°C, dehydration direction

B1: SeEN (Synechococcus elongatus enolase) (Synechococcus elongatus PCC 7942 = FACHB-805) (protein)
chain: MPDDYGTQIAEITAREILDSRGRPTVEAEVHLEDGSVGLAQVPSGASTGTFEAHELRDDDPSRYGGKGVQKAVENVSAIEDALIGLSALDQEGLDKAMIALDGTPNKKNLGANAILAVSLATAHAAATSLNLPLYRYLGGPLANVLPVPMMNVINGGAHADNNVDFQEFMIMPVGAPSFKEALRWGAEVFHALAKVLKDKGLATGVGDEGGFAPNLGSNKEALELLLTAIEAAGYKPGEQVALAMDVASSEFYKNGLYTCDGVSHEPAGMIGILADLVSQYPIVSIEDGLQEDDWSNWKTLTQQLGSTVQLVGDDLFVTNPDRLQSGIEQGVGNAVLIKLNQIGTLTETLRTIDLATRSGYRSVISHRSGETEDTTIADLAVATRAGQIKTGSLSRSERIAKYNRLLRIEAALGENALYAGAIGLGPKGR
notes: full length, synthetic codon-optimized gene in pET-42a(+), C-terminal … (8xHis) tag kept, E. coli Arctic Express (DE3); mainly monomer in gel filtration, dimer in PEP crystal, octamer predicted
Km: 61 ± 4 µM | kcat: 7.4 ± 0.1 s⁻¹ | kcat/Km: 120000 M⁻¹ s⁻¹
